In this experiment the target is human Fc gamma receptor FcγRIIIa, V158 allotype (human). Kind of experiment: ELISA. In general terms: ELISA stands for enzyme-linked immunosorbent assay.

As a reminder, the EC50 is the concentration at which the effect is half-maximal. The low end stands for greater potency, the high end for weaker potency.

Chain of human Fc gamma receptor FcγRIIIa, V158 allotype (human) (P08637 17-208): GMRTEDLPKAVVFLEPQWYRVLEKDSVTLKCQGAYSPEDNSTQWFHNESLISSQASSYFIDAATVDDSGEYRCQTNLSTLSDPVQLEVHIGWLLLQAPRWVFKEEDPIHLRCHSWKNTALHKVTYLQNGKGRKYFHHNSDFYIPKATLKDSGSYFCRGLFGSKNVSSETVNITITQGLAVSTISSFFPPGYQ

Turning to commercial trastuzumab (antibody), the half-maximal effective concentration (EC50) is 5.4 nM.
In the case of “G2-hinge-Fc (E. coli-derived human IgG1 hinge-Fc bearing the G2 glycoform) (domain or fragment)” it was 28.5 nM.

(Values after article PMC12229607.)
